Laboratory results published in US20210388087A1 (Chugai, published 2021).

Each binder was assayed against T1, CD3 epsilon homodimer protein (UniProt P07766 23-126) (assay: SPR (Biacore T200), CD3 epsilon homodimer on CM4 chip, one-arm antibody as analyte, 25 C;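 also: homodimer attached to the sensor surface via amine coupling, HBS-EP+ used as running buffer during binding runs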).
T1 construct: immobilized on Sensor chip CM4 by amine coupling; also called CD3 (CD3 epsilon)
T1 sequence (P07766 23-126): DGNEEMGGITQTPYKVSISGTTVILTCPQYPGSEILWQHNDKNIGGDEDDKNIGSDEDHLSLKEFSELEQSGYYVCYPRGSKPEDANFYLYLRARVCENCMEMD

| Binder | ratio of amounts bound (altered form / CE115HA000) |
| --- | --- |
| CE115HA000 Y100D one-arm antibody (antibody, human IgG1, kappa, L234A L235A, N297A, name in Kabat numbering) heavy: QVQLVESGGGVVQPGRSLRLSCAASGFTFSNAWMHWVRQAPGKGLEWVAQIKAKSNNYATYYAESVKGRFTISRDDSKNSLYLQMNSLKTEDTAVYYCRYVHYGADYGVDAWGQGTTVTVSSASTKGPSVFPLAPSSKSTSGGTAALGCLVKDYFPEPVTVSWNSGALTSGVHTFPAVLQSSGLYSLSSVVTVPSSSLGTQTYICNVNHKPSNTKVDKKVEPKSCDKTHTCPPCPAPEAAGGPSVFLFPPKPKDTLMISRTPEVTCVVVDVSHEDPEVKFNWYVDGVEVHNAKTKPREEQYASTYRVVSVLTVLHQDWLNGKEYKCKVSNKALPAPIEKTISKAKGQPREPQVYTLPPSRCELTKNQVSLSCAVKGFYPSDIAVEWESNGQPENNYKTTPPVLDSDGSFFLVSKLTVDKSRWQQGNVFSCSVMHEALHNHYTQKSLSLSPDYKDDDDK EPKSSDKTHTCPPCPAPELLGGPSVFLFPPKPKDTLMISRTPEVTCVVVDVSHEDPEVKFNWYVDGVEVHNAKTKPREEQYNSTYRVVSVLTVLHQDWLNGKEYKCKVSNKALPAPIEKTISKAKGQPREPQVCTLPPSRDELTKNQVSLWCLVKGFYPSDIAVEWESNGQPENNYKTTPPVLDSDGSFFLYSKLTVDKSRWQQGNVFSCSVMHEALHNRYTQKSLSLSP light: DIVMTQSPLSLPVTPGEPASISCRSSQSLVHSNRNTYLHWYQQKPGQAPRLLIYKVSNRFSGVPDRFSGSGSGTDFTLKISRVEAEDVGVYYCGQGTQVPYTFGQGTKLEIKRTVAAPSVFIFPPSDEQLKSGTASVVCLLNNFYPREAKVQWKVDNALQSGNSQESVTEQDSKDSTYSLSSTLTLSKADYEKHKVYACEVTHQGLSSPVTKSFNRGEC | 0.52 |
| CE115HA000 Y100K one-arm antibody (antibody, human IgG1, kappa, L234A L235A, N297A, name in Kabat numbering) heavy: QVQLVESGGGVVQPGRSLRLSCAASGFTFSNAWMHWVRQAPGKGLEWVAQIKAKSNNYATYYAESVKGRFTISRDDSKNSLYLQMNSLKTEDTAVYYCRYVHYGAKYGVDAWGQGTTVTVSSASTKGPSVFPLAPSSKSTSGGTAALGCLVKDYFPEPVTVSWNSGALTSGVHTFPAVLQSSGLYSLSSVVTVPSSSLGTQTYICNVNHKPSNTKVDKKVEPKSCDKTHTCPPCPAPEAAGGPSVFLFPPKPKDTLMISRTPEVTCVVVDVSHEDPEVKFNWYVDGVEVHNAKTKPREEQYASTYRVVSVLTVLHQDWLNGKEYKCKVSNKALPAPIEKTISKAKGQPREPQVYTLPPSRCELTKNQVSLSCAVKGFYPSDIAVEWESNGQPENNYKTTPPVLDSDGSFFLVSKLTVDKSRWQQGNVFSCSVMHEALHNHYTQKSLSLSPDYKDDDDK EPKSSDKTHTCPPCPAPELLGGPSVFLFPPKPKDTLMISRTPEVTCVVVDVSHEDPEVKFNWYVDGVEVHNAKTKPREEQYNSTYRVVSVLTVLHQDWLNGKEYKCKVSNKALPAPIEKTISKAKGQPREPQVCTLPPSRDELTKNQVSLWCLVKGFYPSDIAVEWESNGQPENNYKTTPPVLDSDGSFFLYSKLTVDKSRWQQGNVFSCSVMHEALHNRYTQKSLSLSP light: DIVMTQSPLSLPVTPGEPASISCRSSQSLVHSNRNTYLHWYQQKPGQAPRLLIYKVSNRFSGVPDRFSGSGSGTDFTLKISRVEAEDVGVYYCGQGTQVPYTFGQGTKLEIKRTVAAPSVFIFPPSDEQLKSGTASVVCLLNNFYPREAKVQWKVDNALQSGNSQESVTEQDSKDSTYSLSSTLTLSKADYEKHKVYACEVTHQGLSSPVTKSFNRGEC | 1.07 |
| CE115HA000 Y100G one-arm antibody (antibody, human IgG1, kappa, L234A L235A, N297A, name in Kabat numbering) heavy: QVQLVESGGGVVQPGRSLRLSCAASGFTFSNAWMHWVRQAPGKGLEWVAQIKAKSNNYATYYAESVKGRFTISRDDSKNSLYLQMNSLKTEDTAVYYCRYVHYGAGYGVDAWGQGTTVTVSSASTKGPSVFPLAPSSKSTSGGTAALGCLVKDYFPEPVTVSWNSGALTSGVHTFPAVLQSSGLYSLSSVVTVPSSSLGTQTYICNVNHKPSNTKVDKKVEPKSCDKTHTCPPCPAPEAAGGPSVFLFPPKPKDTLMISRTPEVTCVVVDVSHEDPEVKFNWYVDGVEVHNAKTKPREEQYASTYRVVSVLTVLHQDWLNGKEYKCKVSNKALPAPIEKTISKAKGQPREPQVYTLPPSRCELTKNQVSLSCAVKGFYPSDIAVEWESNGQPENNYKTTPPVLDSDGSFFLVSKLTVDKSRWQQGNVFSCSVMHEALHNHYTQKSLSLSPDYKDDDDK EPKSSDKTHTCPPCPAPELLGGPSVFLFPPKPKDTLMISRTPEVTCVVVDVSHEDPEVKFNWYVDGVEVHNAKTKPREEQYNSTYRVVSVLTVLHQDWLNGKEYKCKVSNKALPAPIEKTISKAKGQPREPQVCTLPPSRDELTKNQVSLWCLVKGFYPSDIAVEWESNGQPENNYKTTPPVLDSDGSFFLYSKLTVDKSRWQQGNVFSCSVMHEALHNRYTQKSLSLSP light: DIVMTQSPLSLPVTPGEPASISCRSSQSLVHSNRNTYLHWYQQKPGQAPRLLIYKVSNRFSGVPDRFSGSGSGTDFTLKISRVEAEDVGVYYCGQGTQVPYTFGQGTKLEIKRTVAAPSVFIFPPSDEQLKSGTASVVCLLNNFYPREAKVQWKVDNALQSGNSQESVTEQDSKDSTYSLSSTLTLSKADYEKHKVYACEVTHQGLSSPVTKSFNRGEC | 1.07 |

Continued, values first:

| ratio of amounts bound (altered form / CE115HA000) | Binder |
| --- | --- |
| 0.8 | CE115HA000 Y100Q one-arm antibody (antibody, human IgG1, kappa, L234A L235A, N297A, name in Kabat numbering) heavy: QVQLVESGGGVVQPGRSLRLSCAASGFTFSNAWMHWVRQAPGKGLEWVAQIKAKSNNYATYYAESVKGRFTISRDDSKNSLYLQMNSLKTEDTAVYYCRYVHYGAQYGVDAWGQGTTVTVSSASTKGPSVFPLAPSSKSTSGGTAALGCLVKDYFPEPVTVSWNSGALTSGVHTFPAVLQSSGLYSLSSVVTVPSSSLGTQTYICNVNHKPSNTKVDKKVEPKSCDKTHTCPPCPAPEAAGGPSVFLFPPKPKDTLMISRTPEVTCVVVDVSHEDPEVKFNWYVDGVEVHNAKTKPREEQYASTYRVVSVLTVLHQDWLNGKEYKCKVSNKALPAPIEKTISKAKGQPREPQVYTLPPSRCELTKNQVSLSCAVKGFYPSDIAVEWESNGQPENNYKTTPPVLDSDGSFFLVSKLTVDKSRWQQGNVFSCSVMHEALHNHYTQKSLSLSPDYKDDDDK EPKSSDKTHTCPPCPAPELLGGPSVFLFPPKPKDTLMISRTPEVTCVVVDVSHEDPEVKFNWYVDGVEVHNAKTKPREEQYNSTYRVVSVLTVLHQDWLNGKEYKCKVSNKALPAPIEKTISKAKGQPREPQVCTLPPSRDELTKNQVSLWCLVKGFYPSDIAVEWESNGQPENNYKTTPPVLDSDGSFFLYSKLTVDKSRWQQGNVFSCSVMHEALHNRYTQKSLSLSP light: DIVMTQSPLSLPVTPGEPASISCRSSQSLVHSNRNTYLHWYQQKPGQAPRLLIYKVSNRFSGVPDRFSGSGSGTDFTLKISRVEAEDVGVYYCGQGTQVPYTFGQGTKLEIKRTVAAPSVFIFPPSDEQLKSGTASVVCLLNNFYPREAKVQWKVDNALQSGNSQESVTEQDSKDSTYSLSSTLTLSKADYEKHKVYACEVTHQGLSSPVTKSFNRGEC |
| 0.7 | CE115HA000 Y100L one-arm antibody (antibody, human IgG1, kappa, L234A L235A, N297A, name in Kabat numbering) heavy: QVQLVESGGGVVQPGRSLRLSCAASGFTFSNAWMHWVRQAPGKGLEWVAQIKAKSNNYATYYAESVKGRFTISRDDSKNSLYLQMNSLKTEDTAVYYCRYVHYGALYGVDAWGQGTTVTVSSASTKGPSVFPLAPSSKSTSGGTAALGCLVKDYFPEPVTVSWNSGALTSGVHTFPAVLQSSGLYSLSSVVTVPSSSLGTQTYICNVNHKPSNTKVDKKVEPKSCDKTHTCPPCPAPEAAGGPSVFLFPPKPKDTLMISRTPEVTCVVVDVSHEDPEVKFNWYVDGVEVHNAKTKPREEQYASTYRVVSVLTVLHQDWLNGKEYKCKVSNKALPAPIEKTISKAKGQPREPQVYTLPPSRCELTKNQVSLSCAVKGFYPSDIAVEWESNGQPENNYKTTPPVLDSDGSFFLVSKLTVDKSRWQQGNVFSCSVMHEALHNHYTQKSLSLSPDYKDDDDK EPKSSDKTHTCPPCPAPELLGGPSVFLFPPKPKDTLMISRTPEVTCVVVDVSHEDPEVKFNWYVDGVEVHNAKTKPREEQYNSTYRVVSVLTVLHQDWLNGKEYKCKVSNKALPAPIEKTISKAKGQPREPQVCTLPPSRDELTKNQVSLWCLVKGFYPSDIAVEWESNGQPENNYKTTPPVLDSDGSFFLYSKLTVDKSRWQQGNVFSCSVMHEALHNRYTQKSLSLSP light: DIVMTQSPLSLPVTPGEPASISCRSSQSLVHSNRNTYLHWYQQKPGQAPRLLIYKVSNRFSGVPDRFSGSGSGTDFTLKISRVEAEDVGVYYCGQGTQVPYTFGQGTKLEIKRTVAAPSVFIFPPSDEQLKSGTASVVCLLNNFYPREAKVQWKVDNALQSGNSQESVTEQDSKDSTYSLSSTLTLSKADYEKHKVYACEVTHQGLSSPVTKSFNRGEC |
| 0.48 | CE115HA000 Y100P one-arm antibody (antibody, human IgG1, kappa, L234A L235A, N297A, name in Kabat numbering) heavy: QVQLVESGGGVVQPGRSLRLSCAASGFTFSNAWMHWVRQAPGKGLEWVAQIKAKSNNYATYYAESVKGRFTISRDDSKNSLYLQMNSLKTEDTAVYYCRYVHYGAPYGVDAWGQGTTVTVSSASTKGPSVFPLAPSSKSTSGGTAALGCLVKDYFPEPVTVSWNSGALTSGVHTFPAVLQSSGLYSLSSVVTVPSSSLGTQTYICNVNHKPSNTKVDKKVEPKSCDKTHTCPPCPAPEAAGGPSVFLFPPKPKDTLMISRTPEVTCVVVDVSHEDPEVKFNWYVDGVEVHNAKTKPREEQYASTYRVVSVLTVLHQDWLNGKEYKCKVSNKALPAPIEKTISKAKGQPREPQVYTLPPSRCELTKNQVSLSCAVKGFYPSDIAVEWESNGQPENNYKTTPPVLDSDGSFFLVSKLTVDKSRWQQGNVFSCSVMHEALHNHYTQKSLSLSPDYKDDDDK EPKSSDKTHTCPPCPAPELLGGPSVFLFPPKPKDTLMISRTPEVTCVVVDVSHEDPEVKFNWYVDGVEVHNAKTKPREEQYNSTYRVVSVLTVLHQDWLNGKEYKCKVSNKALPAPIEKTISKAKGQPREPQVCTLPPSRDELTKNQVSLWCLVKGFYPSDIAVEWESNGQPENNYKTTPPVLDSDGSFFLYSKLTVDKSRWQQGNVFSCSVMHEALHNRYTQKSLSLSP light: DIVMTQSPLSLPVTPGEPASISCRSSQSLVHSNRNTYLHWYQQKPGQAPRLLIYKVSNRFSGVPDRFSGSGSGTDFTLKISRVEAEDVGVYYCGQGTQVPYTFGQGTKLEIKRTVAAPSVFIFPPSDEQLKSGTASVVCLLNNFYPREAKVQWKVDNALQSGNSQESVTEQDSKDSTYSLSSTLTLSKADYEKHKVYACEVTHQGLSSPVTKSFNRGEC |
